{
  "source": "paper PMC6925385",
  "about": "“Dual role of a GTPase conformational switch for membrane fusion by mitofusin ubiquitylation” (Life Science Alliance, 2019)",
  "proteins": {"B1": {"name": "HA-tagged Fzo1 (yeast mitofusin), wild type (natural protein, yeast (strains isogenic to S288c), UniProt P38297 1-855, looked up)", "chain": "MSEGKQQFKDSNKPHKDSTDQDDDAATIVPQTLTYSRNEGHFLGSNFHGVTDDRTTLFDGEEGRREDDLLPSLRSSNSKAHLISSQLSQWNYNNNRVLLKRSILKTQAFMDQLQEENNIRPIFIAANDEREKLHVLQLNIKLDGQYNTKEKNGFNIEKKALSKLFHSQIVSVTNHLNALKKRVDDVSSKVFITGDVNTGKSALCNSLLKQRLLPEDQLPCTNVFSEILEARENDGIEEVHAIPLNIAPTLKEAIDMYSIQNPKTYEIHTLKELPDLVPQNGKYALLKIYIKDDKRPASTSLLRNGTVDISLIDSPGLNMDSLQTAEVMSRQEEIDLVIFVVNAENQLTLSAKEFISLASREKKLMFFVVKKFDKIRDKQRCKELILKQIRDLSPETYKRAADFVHFVSKNGDELPHYHNENDNEDHGDRKPDDDPYSSSDPDPDFDSLEDSLRNFVLKKRSLSKLLPAKTYLSKLLSDIIMISKSNMKMYSEEEIKINEQLETLRPEILSARAKCNDLTTSVDQMAEQTITMTYNNTKEALLNALDVPLHEYPKYQGLGQIYDFIFSTEAFIANQIDESIGSSELFAKQKTDLLVKKIYEIGKNELGDDFMCERVFRSELMFRKRKHLIGKRLKVSLSITDLFAPTWKGFLSYLSWQKPVTAPLPDIEGQTNEGQIGLMKYLGLKNYPLTQYWSRPSLLFTSKIPTLTLYFLGSTKVVGNIILNGIKLSSWSSLKKLSVPVIVVGSLLGLTYLIHDLPRALPMNLSIKYKRKLQELDYIHLNAQRTSNEVRDVLRVPTREILRSCEIIMDKKQITKKELENKKESNLLSIKFFQSLYEGTVAQKLMVEEINLDID", "modifications": "unmodified and ubiquitylated forms both present; K48-linked ubiquitin chains conjugated to lysine 398", "notes": "Fzo1, the yeast mitofusin (large dynamin-related GTPase of the mitochondrial outer membrane); The immunoprecipitate holds a mix of unmodified and ubiquitylated Fzo1; also called HA-Fzo1; wt Fzo1; source: yeast (isogenic to S288c), genomically HA-tagged or expressed from the centromeric plasmid pRS316 in Δfzo1 cells; in solubilized crude mitochondrial extracts"}},
  "biological_target": "the molecule itself",
  "experiment": "sucrose gradient centrifugation; crude mitochondrial extracts solubilized with 1% digitonin at low protein density (pellet in 500 μl, 10× less dense); 5-25% sucrose gradient, 14-16 h at 4°C; fractions blotted for HA",
  "data": [
    {"protein": "B1", "values": [
      {"measurement": "stoichiometry N", "value": 2}
    ]}
  ]
}
